{"source": "patent US20110294217", "about": "“DNA NICKING ENZYME FROM A HOMING ENDONUCLEASE THAT STIMULATES SITE-SPECIFIC GENE CONVERSION” (FRED HUTCHINSON CANCER RESEARCH CENTER, published 2011)", "binders": {"B1": {"name": "I-AniI Lib4 target site (dsDNA)", "DNA 1": "TGAGGAGGTTACTCTGTTA", "DNA 2": "TAACAGAGTAACCTCCTCA"}, "B2": {"name": "I-AniI native target site (19 bp) (dsDNA)", "DNA 1": "TTACAGAGAAACCTCCTCA", "DNA 2": "TGAGGAGGTTTCTCTGTAA"}}, "key": {"[1]": {"molecular_target": "T1, I-AniI K227M/Q171K (catalytically inactive) (Aspergillus nidulans, UniProt P03880 P03880:235-488, F80K,L233K,Q171K,K227M)", "T1 sequence": "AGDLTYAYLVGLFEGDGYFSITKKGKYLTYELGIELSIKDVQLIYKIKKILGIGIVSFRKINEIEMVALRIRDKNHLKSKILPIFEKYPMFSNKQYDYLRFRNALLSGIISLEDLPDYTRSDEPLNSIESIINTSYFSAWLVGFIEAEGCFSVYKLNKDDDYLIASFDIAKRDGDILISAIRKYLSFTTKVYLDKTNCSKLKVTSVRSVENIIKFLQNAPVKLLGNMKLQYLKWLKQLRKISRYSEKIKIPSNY", "test": "ITC; catalytically inactive", "experimental": "(§1) Isothermal titration calorimetry (ITC) was used to determine the dissociation constants of native and nicking I-AniI binding to the optimal LIB4 DNA target site (FIG. 4E). Calorimetric experiments were conducted as described previously (Eastberg et al., Biochemistry 46:7215-25, 2007). […] This difference is primarily due to a +5.8 kcal/mol increase in enthalpy change upon nickase binding, implying that the nicking variant has lost contacts to the DNA target—presumably because a hydrogen bond formed by the K227 side chain to the DNA phosphate backbone (Scalley-Kim et al., J. Mol. Biol. 372:1305-1319, 2007) is eliminated."}, "I-AniI K227M nickase": {"molecular_target": "T2, I-AniI K227M nickase (Aspergillus nidulans, UniProt P03880 P03880:235-488, F80K,L233K,K227M)", "T2 sequence": "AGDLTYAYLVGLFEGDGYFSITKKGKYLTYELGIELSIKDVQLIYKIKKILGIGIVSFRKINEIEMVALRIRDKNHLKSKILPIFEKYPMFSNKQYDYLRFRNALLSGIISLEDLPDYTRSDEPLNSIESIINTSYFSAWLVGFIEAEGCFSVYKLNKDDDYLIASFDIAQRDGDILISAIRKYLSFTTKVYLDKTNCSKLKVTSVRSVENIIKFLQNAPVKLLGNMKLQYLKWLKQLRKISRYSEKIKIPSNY", "test": "ITC; +1.4 kcal/mol in binding free energy vs wild type", "experimental": "as §1"}, "[2]": {"molecular_target": "T3, I-AniI Y2 K227M nickase (in cell) (Aspergillus nidulans, UniProt P03880 P03880:235-488, F13Y,F80K,S111Y,L232K,K227M)", "T3 sequence": "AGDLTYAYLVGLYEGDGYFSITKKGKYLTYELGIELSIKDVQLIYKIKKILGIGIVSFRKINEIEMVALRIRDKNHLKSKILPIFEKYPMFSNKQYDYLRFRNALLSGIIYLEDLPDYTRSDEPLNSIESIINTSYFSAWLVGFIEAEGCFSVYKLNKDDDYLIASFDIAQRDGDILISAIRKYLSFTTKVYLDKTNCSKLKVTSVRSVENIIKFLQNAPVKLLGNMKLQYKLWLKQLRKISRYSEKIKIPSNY", "test": "cell_activity; cis recombination, 293T; reporter alone 5.10", "details": "tags: N-terminal HA and NLS", "experimental": "(§2) Cells were analyzed on an FACScan® flow cytometer (Becton Dickinson); 75,000 events were gated for linear side and forward scatter to identify cells; and GFP fluorescence was analyzed.\n(§3) Reporter assays were developed to measure either intramolecular recombination in cis, or recombination of a chromosomal target mediated by a donor in trans. The assay for recombination in cis used a reporter, DR-GFPAni, based on the direct repeat recombination reporter plasmid (DR)-GFP (Pierce et al., Genes Dev. 13:2633-2638, 1999), which was designed to score only gene conversion, and not repair mediated by NHEJ or single-strand annealing. […] Transfection efficiency was consistently greater than 90%. […] The fraction of GFP⁺ cells ranged from a background of about 3 to about 5% for cells transfected with the reporter alone, up to about 50% in cells transfected simultaneously with the reporter plasmid and an I-AniI Y2 cleavase expression plasmid (FIG. 8C and FIG. 10). […] Expression of the I-AniI nickase stimulated recombination 2.5-fold (FIG. 8C), or approximately one-fourth as efficiently as the I-AniI cleavase.\n(§4) ¹The two different series were performed as described in this example."}, "I-AniI Y2 (in cell)": {"molecular_target": "T4, I-AniI Y2 (in cell) (Aspergillus nidulans, UniProt P03880 P03880:235-488, F13Y,F80K,S111Y,L232K)", "T4 sequence": "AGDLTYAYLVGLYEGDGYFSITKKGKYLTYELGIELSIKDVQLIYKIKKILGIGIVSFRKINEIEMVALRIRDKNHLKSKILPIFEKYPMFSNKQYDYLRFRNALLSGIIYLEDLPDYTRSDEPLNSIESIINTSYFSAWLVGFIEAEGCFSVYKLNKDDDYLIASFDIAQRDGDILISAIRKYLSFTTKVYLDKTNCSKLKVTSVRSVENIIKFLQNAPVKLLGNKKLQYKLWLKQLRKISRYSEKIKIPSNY", "test": "cell_activity; cis recombination, 293T; reporter alone 5.10", "details": "tags: N-terminal HA and NLS", "experimental": "as §2, §3, §4"}, "I-AniI HyperK (in cell)": {"molecular_target": "T5, I-AniI HyperK (in cell) (Aspergillus nidulans, UniProt P03880 P03880:235-488, F80K,L232K)", "T5 sequence": "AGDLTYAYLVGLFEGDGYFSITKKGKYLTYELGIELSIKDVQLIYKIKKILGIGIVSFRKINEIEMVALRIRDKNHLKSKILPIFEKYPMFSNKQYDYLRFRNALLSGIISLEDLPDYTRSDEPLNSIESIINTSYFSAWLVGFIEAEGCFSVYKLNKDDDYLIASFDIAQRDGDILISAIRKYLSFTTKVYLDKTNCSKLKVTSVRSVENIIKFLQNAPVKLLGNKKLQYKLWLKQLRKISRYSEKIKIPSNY", "test": "cell_activity; cis recombination, 293T; reporter alone 5.10", "details": "tags: N-terminal HA and NLS", "experimental": "as §2, §3, §4"}}, "data": [{"binder": "B1", "values": [{"measurement": "Kd", "setting": "[1]", "result": 62, "unit": "nM"}, {"measurement": "Kd", "setting": "I-AniI K227M nickase", "result": 71, "unit": "nM"}]}, {"binder": "B2", "values": [{"measurement": "activity", "setting": "[2]", "result": 12.4, "unit": "% GFP+"}, {"measurement": "activity", "setting": "I-AniI Y2 (in cell)", "result": 47.5, "unit": "% GFP+"}, {"measurement": "activity", "setting": "I-AniI HyperK (in cell)", "result": 11, "unit": "% GFP+"}]}]}
